Source: the supplement of paper PMC5998384

Columns and labels:
[1] = tested on: HeLa Kyoto; assay: melting temperature (median over replicates), in situ; higher = more thermally stable
[2] = tested on: HeLa Kyoto; assay: solubility change mitosis vs G1/S (difference of NP-40 vs SDS log2 ratios) (log2 ratio difference); higher = more soluble in mitosis
[3] = tested on: HeLa Kyoto; assay: solubility in G1/S (NP-40 vs SDS abundance) (log2 ratio); higher = more soluble; settings: cell cycle stage: G1/S
[4] = tested on: HeLa Kyoto; assay: thermal stability score vs G1/S (z-score of summed log2 fold changes over temperatures); higher = more thermally stable than in G1/S
[5] = cell cycle stage: early G1 (4.5 h after nocodazole release)
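For melting temperature (median over replicates), in situ in this document: HeLa Kyoto cells synchronized by double thymidine or nocodazole block, proteins quantified by TMT10plex mass spectrometry, three independent biological replicates.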
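For solubility change mitosis vs G1/S (difference of NP-40 vs SDS log2 ratios) in this document: synchronized HeLa Kyoto cells (double thymidine block for G1/S, nocodazole release for mitosis), protein amounts in NP-40 versus SDS lysates quantified by mass spectrometry, three biological replicates.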
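For solubility in G1/S (NP-40 vs SDS abundance) in this document: HeLa Kyoto cells arrested at G1/S by double thymidine block, proteins quantified by TMT10plex mass spectrometry in mild NP-40 versus SDS extracts, three biological replicates.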
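For thermal stability score vs G1/S (z-score of summed log2 fold changes over temperatures) in this document: synchronized HeLa Kyoto cells, proteins quantified by TMT10plex mass spectrometry, three biological replicates, mitosis taken 0.5 h after nocodazole release, G1/S directly after double thymidine block.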

MSAGEVERLVSELSGGTGGDEEEEWLYGGPWDVHVHSDLAKDLDENEVERPEEENASANPPSGIEDETAENGVPKPKVTETEDDSDSDSDDDEDDVHVTIGDIKTGAPQYGSYGTAPVNLNIKTGGRVYGTTGTKVKGVDLDAPGSINGVPLLEVDLDSFEDKPWRKPGADLSDYFNYGFNEDTWKAYCEKQKRIRMGLEVIPVTSTTNKITAEDCTMEVTPGAEIQDGRFNLFKVQQGRTGNSEKETALPSTKAEFTSPPSLFKTGLPPSRNSTSSQSQTSTASRKANSSVGKWQDRYGRAESPDLRRLPGAIDVIGQTITISRVEGRRRANENSNIQVLSERSATEVDNNFSKPPPFFPPGAPPTHLPPPPFLPPPPTVSTAPPLIPPPGFPPPPGAPPPSLIPTIESGHSSGYDSRSARAFPYGNVAFPHLPGSAPSWPSLVDTSKQWDYYARREKDRDRERDRDRERDRDRDRERERTRERERERDHSPTPSVFNSDEERYRYREYAERGYERHRASREKEERHRERRHREKEETRHKSSRSNSRRRHESEEGDSHRRHKHKKSKRSKEGKEAGSEPAPEQESTEATPAE [FIP1L1]
melting temperature ([1]; cell cycle stage: G1/S): 48.8 °C | melting temperature ([1]; cell cycle stage: mitosis): 49.9 °C | solubility change mitosis (log2) [2]: 0.265 | solubility in G1/S (log2) [3]: -0.594 | thermal stability score [4, 5]: 0.669 | thermal stability score ([4]; cell cycle stage: mitosis): 2.71

MSAIPAEESDQLLIRPLGAGQEVGRSCIILEFKGRKIMLDCGIHPGLEGMDALPYIDLIDPAEIDLLLISHFHLDHCGALPWFLQKTSFKGRTFMTHATKAIYRWLLSDYVKVSNISADDMLYTETDLEESMDKIETINFHEVKEVAGIKFWCYHAGHVLGAAMFMIEIAGVKLLYTGDFSRQEDRHLMAAEIPNIKPDILIIESTYGTHIHEKREEREARFCNTVHDIVNRGGRGLIPVFALGRAQELLLILDEYWQNHPELHDIPIYYASSLAKKCMAVYQTYVNAMNDKIRKQININNPFVFKHISNLKSMDHFDDIGPSVVMASPGMMQSGLSRELFESWCTDKRNGVIIAGYCVEGTLAKHIMSEPEEITTMSGQKLPLKMSVDYISFSAHTDYQQTSEFIRALKPPHVILVHGEQNEMARLKAALIREYEDNDEVHIEVHNPRNTEAVTLNFRGEKLAKVMGFLADKKPEQGQRVSGILVKRNFNYHILSPCDLSNYTDLAMSTVKQTQAIPYTGPFNLLCYQLQKLTGDVEELEIQEKPALKVFKNITVIQEPGMVVLEWLANPSNDMYADTVTTVILEVQSNPKIRKGAVQKVSKKLEMHVYSKRLEIMLQDIFGEDCVSVKDDSILSVTVDGKTANLNLETRTVECEEGSEDDESLREMVELAAQRLYEALTPVH [CPSF3]
melting temperature ([1]; cell cycle stage: G1/S): 51.2 °C | melting temperature ([1]; cell cycle stage: mitosis): 50.5 °C | solubility change mitosis (log2) [2]: -0.00173 | solubility in G1/S (log2) [3]: -0.183 | thermal stability score [4, 5]: 0.918 | thermal stability score ([4]; cell cycle stage: mitosis): 1.38

MSALLRLLRTGAPAAACLRLGTSAGTGSRRAMALYHTEERGQPCSQNYRLFFKNVTGHYISPFHDIPLKVNSKEENGIPMKKARNDEYENLFNMIVEIPRWTNAKMEIATKEPMNPIKQYVKDGKLRYVANIFPYKGYIWNYGTLPQTWEDPHEKDKSTNCFGDNDPIDVCEIGSKILSCGEVIHVKILGILALIDEGETDWKLIAINANDPEASKFHDIDDVKKFKPGYLEATLNWFRLYKVPDGKPENQFAFNGEFKNKAFALEVIKSTHQCWKALLMKKCNGGAINCTNVQISDSPFRCTQEEARSLVESVSSSPNKESNEEEQVWHFLGK [PPA2]
melting temperature ([1]; cell cycle stage: G1/S): 54.8 °C | melting temperature ([1]; cell cycle stage: mitosis): 55.1 °C | solubility change mitosis (log2) [2]: 0.0395 | solubility in G1/S (log2) [3]: 0.442 | thermal stability score [4, 5]: -1.33 | thermal stability score ([4]; cell cycle stage: mitosis): -2

MSAQAQMRALLDQLMGTARDGDETRQRVKFTDDRVCKSHLLDCCPHDILAGTRMDLGECTKIHDLALRADYEIASKERDLFFELDAMDHLESFIAECDRRTELAKKRLAETQEEISAEVSAKAEKVHELNEEIGKLLAKAEQLGAEGNVDESQKILMEVEKVRAKKKEAEEEYRNSMPASSFQQQKLRVCEVCSAYLGLHDNDRRLADHFGGKLHLGFIQIREKLDQLRKTVAEKQEKRNQDRLRRREEREREERLSRRSGSRTRDRRRSRSRDRRRRRSRSTSRERRKLSRSRSRDRHRRHRSRSRSHSRGHRRASRDRSAKYKFSRERASREESWESGRSERGPPDWRLESSNGKMASRRSEEKEAGEI [LUC7L]
melting temperature ([1]; cell cycle stage: G1/S): 50.1 °C | melting temperature ([1]; cell cycle stage: mitosis): 51.4 °C | solubility change mitosis (log2) [2]: 0.353 | solubility in G1/S (log2) [3]: -0.598 | thermal stability score [4, 5]: 1.93 | thermal stability score ([4]; cell cycle stage: mitosis): 1.87

MSAQAQMRAMLDQLMGTSRDGDTTRQRIKFSDDRVCKSHLLNCCPHDVLSGTRMDLGECLKVHDLALRADYEIASKEQDFFFELDAMDHLQSFIADCDRRTEVAKKRLAETQEEISAEVAAKAERVHELNEEIGKLLAKVEQLGAEGNVEESQKVMDEVEKARAKKREAEEVYRNSMPASSFQQQKLRVCEVCSAYLGLHDNDRRLADHFGGKLHLGFIEIREKLEELKRVVAEKQEKRNQERLKRREEREREEREKLRRSRSHSKNPKRSRSREHRRHRSRSMSRERKRRTRSKSREKRHRHRSRSSSRSRSRSHQRSRHSSRDRSRERSKRRSSKERFRDQDLASCDRDRSSRDRSPRDRDRKDKKRSYESANGRSEDRRSSEEREAGEI [LUC7L2]
melting temperature ([1]; cell cycle stage: G1/S): 48.6 °C | melting temperature ([1]; cell cycle stage: mitosis): 50.7 °C | solubility change mitosis (log2) [2]: 0.251 | solubility in G1/S (log2) [3]: -0.803 | thermal stability score [4, 5]: 2.1 | thermal stability score ([4]; cell cycle stage: mitosis): 3.71

MSASAPAAEGEGTPTQPASEKEPEMPGPREESEEEEDEDDEEEEEEEKEKSLIVEGKREKKKVERLTMQVSSLQREPFTIAQGKGQKLCEIERIHFFLSKKKTDELRNLHKLLYNRPGTVSSLKKNVGQFSGFPFEKGSVQYKKKEEMLKKFRNAMLKSICEVLDLERSGVNSELVKRILNFLMHPKPSGKPLPKSKKTCSKGSKKERNSSGMARKAKRTKCPEILSDESSSDEDEKKNKEESSDDEDKESEEEPPKKTAKREKPKQKATSKSKKSVKSANVKKADSSTTKKNQNSSKKESESEDSSDDEPLIKKLKKPPTDEELKETIKKLLASANLEEVTMKQICKKVYENYPTYDLTERKDFIKTTVKELIS
melting temperature ([1]; cell cycle stage: G1/S): 48.8 °C | melting temperature ([1]; cell cycle stage: mitosis): 50.7 °C | solubility change mitosis (log2) [2]: 0.338 | solubility in G1/S (log2) [3]: -0.0398 | thermal stability score [4, 5]: 7.97 | thermal stability score ([4]; cell cycle stage: mitosis): 13.2

MSASAQQLAEELQIFGLDCEEALIEKLVELCVQYGQNEEGMVGELIAFCTSTHKVGLTSEILNSFEHEFLSKRLSKARHSTCKDSGHAGARDIVSIQELIEVEEEEEILLNSYTTPSKGSQKRAISTPETPLTKRSVSTRSPHQLLSPSSFSPSATPSQKYNSRSNRGEVVTSFGLAQGVSWSGRGGAGNISLKVLGCPEALTGSYKSMFQKLPDIREVLTCKIEELGSELKEHYKIEAFTPLLAPAQEPVTLLGQIGCDSNGKLNNKSVILEGDREHSSGAQIPVDLSELKEYSLFPGQVVIMEGINTTGRKLVATKLYEGVPLPFYQPTEEDADFEQSMVLVACGPYTTSDSITYDPLLDLIAVINHDRPDVCILFGPFLDAKHEQVENCLLTSPFEDIFKQCLRTIIEGTRSSGSHLVFVPSLRDVHHEPVYPQPPFSYSDLSREDKKQVQFVSEPCSLSINGVIFGLTSTDLLFHLGAEEISSSSGTSDRFSRILKHILTQRSYYPLYPPQEDMAIDYESFYVYAQLPVTPDVLIIPSELRYFVKDVLGCVCVNPGRLTKGQVGGTFARLYLRRPAADGAERQSPCIAVQVVRI [POLA2]
melting temperature ([1]; cell cycle stage: G1/S): 48.8 °C | melting temperature ([1]; cell cycle stage: mitosis): 50.2 °C | solubility change mitosis (log2) [2]: -0.155 | solubility in G1/S (log2) [3]: 0.0737 | thermal stability score [4, 5]: 1.44 | thermal stability score ([4]; cell cycle stage: mitosis): 4.66

MSASLVRATVRAVSKRKLQPTRAALTLTPSAVNKIKQLLKDKPEHVGVKVGVRTRGCNGLSYTLEYTKTKGDSDEEVIQDGVRVFIEKKAQLTLLGTEMDYVEDKLSSEFVFNNPNIKGTCGCGESFNI [ISCA1]
melting temperature ([1]; cell cycle stage: G1/S): 52.3 °C | melting temperature ([1]; cell cycle stage: mitosis): 51.9 °C | solubility change mitosis (log2) [2]: -0.0859 | solubility in G1/S (log2) [3]: 0.427 | thermal stability score [4, 5]: -0.782 | thermal stability score ([4]; cell cycle stage: mitosis): -2.35

MSATVVDAVNAAPLSGSKEMSLEEPKKMTREDWRKKKELEEQRKLGNAPAEVDEEGKDINPHIPQYISSVPWYIDPSKRPTLKHQRPQPEKQKQFSSSGEWYKRGVKENSIITKYRKGACENCGAMTHKKKDCFERPRRVGAKFTGTNIAPDEHVQPQLMFDYDGKRDRWNGYNPEEHMKIVEEYAKVDLAKRTLKAQKLQEELASGKLVEQANSPKHQWGEEEPNSQMEKDHNSEDEDEDKYADDIDMPGQNFDSKRRITVRNLRIREDIAKYLRNLDPNSAYYDPKTRAMRENPYANAGKNPDEVSYAGDNFVRYTGDTISMAQTQLFAWEAYDKGSEVHLQADPTKLELLYKSFKVKKEDFKEQQKESILEKYGGQEHLDAPPAELLLAQTEDYVEYSRHGTVIKGQERAVACSKYEEDVKIHNHTHIWGSYWKEGRWGYKCCHSFFKYSYCTGEAGKEIVNSEECIINEITGEESVKKPQTLMELHQEKLKEEKKKKKKKKKKHRKSSSDSDDEEKKHEKLKKALNAEEARLLHVKETMQIDERKRPYNSMYETREPTEEEMEAYRMKRQRPDDPMASFLGQ [SLU7]
melting temperature ([1]; cell cycle stage: G1/S): 46.9 °C | melting temperature ([1]; cell cycle stage: mitosis): 49.9 °C | solubility change mitosis (log2) [2]: 0.256 | solubility in G1/S (log2) [3]: -0.523 | thermal stability score [4, 5]: 0.191 | thermal stability score ([4]; cell cycle stage: mitosis): 0.493

MSAYPKSYNPFDDDGEDEGARPAPWRDARDLPDGPDAPADRQQYLRQEVLRRAEATAASTSRSLALMYESEKVGVASSEELARQRGVLERTEKMVDKMDQDLKISQKHINSIKSVFGGLVNYFKSKPVETPPEQNGTLTSQPNNRLKEAISTSKEQEAKYQASHPNLRKLDDTDPVPRGAGSAMSTDAYPKNPHLRAYHQKIDSNLDELSMGLGRLKDIALGMQTEIEEQDDILDRLTTKVDKLDVNIKSTERKVRQL [SNAP29]
melting temperature ([1]; cell cycle stage: G1/S): 52.7 °C | melting temperature ([1]; cell cycle stage: mitosis): 52.7 °C | solubility change mitosis (log2) [2]: 0.314 | solubility in G1/S (log2) [3]: 0.394 | thermal stability score [4, 5]: -4.76 | thermal stability score ([4]; cell cycle stage: mitosis): -2.04
